Residue numbers refer to the chain shown, from its start. Names and notes keep the numbering of the source.
B1: GST-NIPBL WT (C-terminus of chicken NIPBL, aa 2582-2783, fused to GST) (domain or fragment)
chain: ANSKITEEVKRSIVKQYLDFKLLMEHLDPDEEEEDGEVSASTNARNKAITSLLGGGSPKNNAAETEDDESDGEDRGGGTSGSLRRSKRNSDSTELASQMNESVDVMDVIAICCPKYKDRPQIARVVQKTSNGFSVQWMAGSYSGSWTEAKRRDGRKLVPWVDTIKESDIIYKKIALTSANKLTNKVVQTLRSLYAAKDGTSS
B2: GST-NIPBL pip1 (chicken NIPBL aa 2582-2783 with PIP1 mutated Q2597A,L2599A,F2601A, fused to GST) (domain or fragment)
chain: B1 chain with Q16A, L18A, F20A
B3: GST-NIPBL-PIP2 (chicken NIPBL aa 2764-2783 fused to GST) (peptide)
chain: TNKVVQTLRSLYAAKDGTSS
B4: GST-NIPBL-pip2 (chicken NIPBL aa 2764-2783 with Q2769A,L2771A,Y2775A, fused to GST) (peptide)
chain: TNKVVATARSLAAAKDGTSS
B5: GSTscc2PIP (GST fused with the last 18 amino acids of yeast Scc2, aa 1476-1493, wild-type PIP) (domain or fragment)
chain: YSSNGKLLTYFRKHVKDT

Assays:
[1] = molecular target: chicken N-terminally His-tagged PCNA (recombinant) (chicken, UniProt Q9DEA3 1-262); assay: pull-down
Sequence of chicken N-terminally His-tagged PCNA (recombinant) (Q9DEA3 whole entry): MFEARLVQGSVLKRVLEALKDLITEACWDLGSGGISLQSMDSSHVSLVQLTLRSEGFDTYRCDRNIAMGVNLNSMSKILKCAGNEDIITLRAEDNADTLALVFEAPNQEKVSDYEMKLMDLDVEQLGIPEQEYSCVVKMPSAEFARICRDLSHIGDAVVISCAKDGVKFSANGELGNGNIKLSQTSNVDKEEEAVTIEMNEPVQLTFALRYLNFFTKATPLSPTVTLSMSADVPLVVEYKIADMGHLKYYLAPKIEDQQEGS

[2] = molecular target: T1, yeast PCNA, N-terminally His-tagged Pol30 (S. cerevisiae, UniProt P15873 1-258); assay: pull-down
T1 sequence: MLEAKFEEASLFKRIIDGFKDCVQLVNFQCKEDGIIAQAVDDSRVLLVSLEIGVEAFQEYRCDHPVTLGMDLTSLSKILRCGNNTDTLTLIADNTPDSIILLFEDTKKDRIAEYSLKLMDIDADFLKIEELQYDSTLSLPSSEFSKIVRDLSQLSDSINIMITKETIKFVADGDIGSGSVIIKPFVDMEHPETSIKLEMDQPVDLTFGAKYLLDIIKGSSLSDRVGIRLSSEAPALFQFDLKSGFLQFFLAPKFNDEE

Row | Binder | binding result [1] | binding result [2]
1 | B1 | binds | 
2 | B2 | binds | 
3 | B3 | binds | 
4 | B4 | binds | 
5 | B5 |  | binds
